Series [1] concerns the target T1, His-HupS acetylated in vitro (+AcP) (Streptomyces venezuelae) (UniProt F2R5C9).
T1 sequence: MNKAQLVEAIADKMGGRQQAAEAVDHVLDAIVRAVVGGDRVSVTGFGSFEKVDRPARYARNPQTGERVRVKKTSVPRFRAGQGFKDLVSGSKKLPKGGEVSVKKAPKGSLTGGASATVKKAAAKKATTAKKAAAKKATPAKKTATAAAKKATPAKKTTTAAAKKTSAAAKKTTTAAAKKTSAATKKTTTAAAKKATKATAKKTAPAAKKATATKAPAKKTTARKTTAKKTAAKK
Nature of the series: BLI. The following applies: 1 mM Mg2+; lysine-acetylated; BLI: 100 mM Tris-HCl pH 8.0, 200 mM NaCl, 1 mM MgCl2, 0.005% Tween-20, 0.1 mg/ml BSA, 30 C; EMSA: 50 mM Tris-HCl pH 8.0, 150 mM NaCl, 0.02% Tween-20, 10 mM Mg …. (In general: Mobility shift assays separate free from complexed probe on a gel.)

Series [2] has as its target T2, His-HupS (nonacetylated, -AcP) (Streptomyces venezuelae) (UniProt F2R5C9).
T2 sequence: T1 sequence
Nature of the series: BLI. The following applies: 1 mM Mg2+; BLI: 100 mM Tris-HCl pH 8.0, 200 mM NaCl, 1 mM MgCl2, 0.005% Tween-20, 0.1 mg/ml BSA, 30 C; EMSA: 50 mM Tris-HCl pH 8.0, 150 mM NaCl, 0.02% Tween-20, 10 mM Mg ….

As for one-end biotinylated dsDNA 300 bp, the Kd (as a rule, a measure of binding affinity in units of concentration) in series [1] was found to be 28.6 nM; in series [2], 17.4 nM.
The corresponding values for two-ends biotinylated dsDNA 300 bp are 20 nM and 11.3 nM.

These data come from article PMC11229371, “The activity of CobB1 protein deacetylase contributes to nucleoid compaction in Streptomyces venezuelae spores by increasing HupS affinity for DNA” (Nucleic Acids Research, 2024).
